Experimental data published in publication PMC6078952.

Molecular target: Anastellin
Assay: BLI; Octet RED96, anastellin (100 µg/ml) covalently coupled to AR2G biosensors via amine groups, sensors dipped into LOX-PP solutions for 3 min in HBS-P20; 1:1 model

- Kd: 152 nM
- koff: 0.000445 s⁻¹
- kon: 2930 M⁻¹ s⁻¹
B1: recombinant human propeptide of lysyl oxidase (LOX-PP) (domain or fragment)
chain: APLAAGQQQPPREPPAAPGAWRQQIQWENNGQVFSLLSLGSQYQPQRRRDPGAAVPGAANASAQQPRTPILLIRDNRTAAARTRTAGSSGVTAGRPRPTARHWFQAGYSTSRAREAGASRAENQTAPGEVPALSNLRPPSRVDGMVG
modifications: N-linked oligosaccharides (removed by PNGase F, about 13 kDa; three glycosylated asparagine residues: N81, N97, N144)
